# Data published in PMC3447402.
# Biological target: acyl-carrier-protein synthase (AcpS) from Staphylococcus aureus (Staphylococcus aureus)
# Assay: crystal structure
substance,measurement,value
acyl-carrier-protein synthase (AcpS) from Staphylococcus aureus (enzyme),stoichiometry N,3
